Experimental data published in patent publication US20040176285A1, “Tip39 polypeptides” (priority 2001, published 2004).
Entries after “also recorded” stand apart in the source; their conditions may differ. Where a SMILES comes first, the peptide text is derived from it. Where no end group is shown, it is not given here.

Assays:
PTH1R [1] = target: T1, PTH1R (Homo sapiens, UniProt Q03431); assay: Ligand-stimulated cAMP accumulation in HKrk-B7 cells; assay type: cell-based; set-up: expressed in transfected cells; conditions: HKrk-B7 cells
T1 sequence (Q03431 27-593): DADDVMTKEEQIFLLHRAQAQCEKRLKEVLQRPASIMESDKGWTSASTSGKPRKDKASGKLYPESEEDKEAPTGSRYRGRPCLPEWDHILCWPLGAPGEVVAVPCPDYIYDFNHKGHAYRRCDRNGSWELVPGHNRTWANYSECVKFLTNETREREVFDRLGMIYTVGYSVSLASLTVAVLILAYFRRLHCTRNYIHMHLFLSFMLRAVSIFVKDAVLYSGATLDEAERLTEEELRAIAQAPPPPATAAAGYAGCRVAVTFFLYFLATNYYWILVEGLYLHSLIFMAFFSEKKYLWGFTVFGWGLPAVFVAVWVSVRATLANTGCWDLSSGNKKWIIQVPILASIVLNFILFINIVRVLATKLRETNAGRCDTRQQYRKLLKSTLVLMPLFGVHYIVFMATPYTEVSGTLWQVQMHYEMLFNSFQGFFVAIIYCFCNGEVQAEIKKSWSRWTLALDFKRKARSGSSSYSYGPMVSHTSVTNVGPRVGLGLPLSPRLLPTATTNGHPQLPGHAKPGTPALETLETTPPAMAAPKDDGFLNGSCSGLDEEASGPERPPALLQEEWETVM
Procedure: (§1) DMEM, Trypsin/EDTA, and penicillin G/streptomycin and horse serum were from Gibco/BRL, Life Technologies, Gaithersburg, Md. LLC-PK, expressing the recombinant human PTH1R (HKrk-B7 cells) and SaOS-2 cells expressing the wild-type PTH1R endogenously were cultured in DMEM supplemented with 10% heat-inactivated fetal bovine serum, 100 U/ml penicillin, 100 μg/ml streptomycin, as previously described (Gardella, T. J., et al., J. Biol. Chem. 271:19888-19893 (1996); Fukayama, S., et al., Endocrinology 134:1851-1858 (1994)); both cell lines were maintained in a humidified atmosphere containing 95% air and 5% CO2. After seeding, medium was replaced daily, until cells were used for radioligand binding or cAMP accumulation assays.
(§2) Na^125I (specific activity: 2,000 Ci/mmol) was purchased from DuPont/NEN, Boston, Mass. Fetal bovine serum, 3-isobutyl-1-methyl-xanthine (IBMX), and BSA were from Sigma, St. Louis, Mo., and trifluoroacetic acid (TFA) was from Pierce, Rockford, Ill. Radiolabeled rPTH(1-34) and PTHrP(1-36) were prepared by the chloramine-T method, followed by HPLC purification using a 30-50% ACN/0.1% TFA gradient over 30 minutes; radioreceptor assays were performed in 24-well plates as previously described (Gardella, T. J., et al., J. Biol. Chem. 271:19888-19893 (1996); Fukayama, S. et al., Endocrinology 134:1851-1858 (1994)). In brief, each well (final volume 500 μl) contained binding buffer (BB; 50 mM Tris-HCl (pH 7.7), 100 mM NaCl, 5 mM KCl, 2 mM CaCl2, 5% heat-inactivated horse serum, and 0.5% heat-inactivated fetal bovine serum), the ^125I-labeled PTH or PTHrP analog (100,000 to 200,000 cpm) was incubated in the absence or presence of increasing concentrations of unlabeled peptides. After 4 h at 16° C., buffer was completely removed, the cells were rinsed with cold BB and lysed with 1 M NaOH. The entire lysate was counted for γ-irradiation. Specific binding was determined after subtracting radioactivity bound in the presence of maximal concentrations of unlabeled competing peptide (10^−6 M). Agonist-dependent stimulation of cAMP accumulation by HKrk-B7 and SaOS-2 cells (48-well plates; stimulation at room temperature for 45 minutes) and the subsequent measurement of cAMP by radioimmunoassay was performed as previously described (Gardella, T. J., et al., J. Biol. Chem. 271:19888-19893 (1996); Bergwitz, C., et al., Endocrinology 139:723-732 (1998)). Data were analyzed and graphically illustrated using the graph-pad prism software package.
The values for EC50 and Vmax (mean±SE) are derived from at least three independent experiments.

PTH1R [2] = target: T1, PTH1R; assay: Radioreceptor binding assay with HKrk-B7 cells; set-up: expressed in transfected cells; conditions: either radioligand
Procedure: as §1, §2
The binding properties of these peptides were evaluated in radioreceptor assays with HKrk-B7 cells, which express the PTH IR at high density (approximately […]) (Carter, P. H., et al., Endocrinology 140:4972-4981 (1999)), using either radiolabeled rPTH(1-34) or PTHrP(1-36).
The calculated IC50 values (mean±SE) are derived from at least three independent experiments.

Row | Molecule | stimulation of cAMP accumulation at the PTH1R (in words) (PTH1R [1]) | inhibition of radioligand binding to the PTH1R (in words) (PTH1R [2])
1 | CSCC[C@H](NC(=O)[C@H](Cc1ccc(O)cc1)NC(=O)[C@H](CO)NC(=O)[C@H](CC(N)=O)NC(=O)[C@H](CC(C)C)NC(=O)[C@H](Cc1c[nH]c2ccccc12)NC(=O)[C@H](Cc1c[nH]cn1)NC(=O)[C@H](CCCNC(=N)N)NC(=O)[C@H](CCCNC(=N)N)NC(=O)[C@H](CCC(=O)O)NC(=O)[C@H](CC(C)C)NC(=O)[C@H](C)NC(=O)[C@H](C)NC(=O)[C@H](CC(C)C)NC(=O)[C@H](CC(C)C)NC(=O)[C@H](CCCNC(=N)N)NC(=O)[C@H](C)NC(=O)[C@H](CCCNC(=N)N)NC(=O)[C@H](CCC(=O)O)NC(=O)[C@H](CCCNC(=N)N)NC(=O)[C@H](Cc1ccccc1)NC(=O)[C@H](C)NC(=O)[C@H](C)NC(=O)[C@H](CC(=O)O)NC(=O)[C@H](CC(=O)O)NC(=O)[C@H](C)NC(=O)[C@H](CC(C)C)NC(=O)[C@H](C)N)C(=O)N[C@@H](Cc1c[nH]cn1)C(=O)N[C@@H](CCCCN)C(=O)N[C@@H](CC(C)C)C(=O)N[C@@H](CC(C)C)C(=O)N[C@H](C(=O)N[C@@H](CC(C)C)C(=O)N[C@@H](CC(=O)O)C(=O)N[C@@H](C)C(=O)N1CCC[C@H]1C(N)=O)C(C)C [TIP(3-39)] (H-ALADDAAFRERARLLAALERRHWLNSYMHKLLVLDAP-NH2) | lack of second messenger formation; also recorded: failed to stimulate cAMP accumulation | –
2 | [Ile^7]TIP(1-39): TIP(1-39) having Asp7 replaced by the corresponding isoleucine of PTH (SLALADIAAFRERARLLAALERRHWLNSYMHKLLVLDAP) | None of these peptides, however, stimulated cAMP formation; also recorded: no activation of the PTH1R | –
3 | PTHrP(1-6)/TIP(9-39): chimera of human PTHrP residues 1-6 and bovine TIP residues 9-39 | None of these peptides, however, stimulated cAMP formation; also recorded: lack of PTH1R activation | –
4 | PTHrP(1-20)amide (AVSEHQLLHDKGKSIQDLRR-NH2) [reference compound] | – | did not inhibit the binding of either radioligand
